B1: Glucocorticoid receptor, residues 419 to 494; numbered along this chain, P04150 (parent)
chain: KLCLVCSDEASGCHYGVLTCGSCKVFFKRAVEGQHNYLCAGRNDCIIDKIRRKNCPACRYRKCLQAGMNLEARKTK

Variants of: B1
Test: abundance fitness (aPCA) (normalised: wild type 0, dead -1); higher = more abundant; growth selection in yeast, the domain comes from the species named
Conditions: Homo sapiens

Abundance fitness of substitutions, site by site:
C39: E -0.641, D -0.863, H -0.575, Y -0.951, T -0.553, G -0.716, V -1, R -0.976, I -1, F -0.603, K -0.787, P -0.585, S -0.927, N -0.603, W -0.992, Q -0.586, M -0.998, L -0.923
N36: V -0.106, T -0.008, H -0.042, E 0.002, F -0.006, W -0.151, G -0.057, Q -0.034, K 0.038, D -0.065, L -0.036, Y -0.259, M 0.008, P -0.05, S 0.022, I -0.054
I50: Y -0.143, E -0.028, T -0.007, P 0.081, V 0.013, S 0.015, W -0.02, D -0.032, M 0.055, N -0.018, Q 0.046, R 0.005, H -0.153, G 0.009, L 0.046, A -0.004
N43: V -0.285, R -0.052, K 0.013, Y -0.008, F -0.02, Q 0.028, T -0.134, I -0.233, E 0.011, W -0.056, L -0.123, P -0.575, S -0.044, G -0.024, A -0.027, C -0.193, D -0.008
I47: A -0.368, N -0.164, F -0.449, G -0.304, Q -0.183, T -0.125, S -0.252, E -0.216, W -0.542, L -0.135, P -0.442, D -0.072, R -0.406, V 0.015, K -0.267, C -0.438, M -0.143, H -0.304
K53: L -0.017, A 0.014, P -0.027, S -0.009, Y -0.026, I -0.091, G 0.039, H -0.038, T -0.024, E 0.058, V -0.037, D 0.083, Q 0.016, R -0.015, F -0.033, M 0.001, W -0.075, C -0.263
I46: A 0.031, P -0.048, H -0.045, C -0.025, L -0.039, E -0.009, T 0.029, Y 0.029, F 0.087, S 0.005, N -0.002, Q 0.064, V -0.027, R -0.012, W -0.137
A40: T -0.067, W -0.079, R -0.043, M -0.058, I -0.038, P -0.066, C -0.137, Y -0.032, Q 0.012, G -0.04, V 0.019, F -0.088, H -0.192, N -0.024, L -0.065, D -0.136, E -0.048
Y37: G -0.074, N -0.026, T -0.084, Q -0.137, F 0.011, L -0.003, H -0.117, K -0.122, V -0.116, E -0.107, M 0.013, C -0.299, D -0.144, R -0.211, I -0.08, P -0.104
R51: G 0.009, V -0.068, A -0.072, I -0.134, T -0.016, S -0.023, Q -0.002, M 0.042, N -0.031, P -0.136, W -0.083, L -0.031, C -0.215, F 0.051
D44: R -0.088, V -0.053, T -0.023, C 0.009, A -0.014, E 0.032, Q -0.026, Y -0.37, P -0.323, M 0, K -0.062, I -0.344, G -0.145, S -0.08, F -0.381, L -0.189, W -0.423, N -0.073, H -0.11
G41: C -0.005, L -0.013, V -0.051, D -0.049, R 0.02, S -0.031, W -0.017, I -0.101, M -0.004, N 0.032, E -0.043, A -0.016, Q -0.055, Y -0.123, T -0.04, K 0.011
P56: A 0, E 0.015, C 0.052
R52: E -0.028, L -0.048, M -0.101, I -0.093, G -0.016, C 0.051, W -0.112, S -0.12, T -0.129, K -0.03, A -0.051, P -0.203, V -0.056
C45: F -0.649, Y -0.704, Q -0.558, A -0.797, K -1.27, L -0.917, H -0.168, E -0.762, T -0.99, M -1.18, V -0.698, I -0.948, R -0.778, P -1.02, W -0.932
C55: G -0.814, Y -0.66, T -0.849, W -0.588, H -0.911, M -1.16, D -1.13, F -1.02, L -1.1, Q -0.838, K -0.877, P -0.757, S -0.707, R -0.929, V -0.739, I -0.801
N54: T -0.005, D -0.015, Y 0.014, R -0.053, W -0.064, F -0.061, K 0.049, G -0.104, M -0.064, E -0.025, C -0.136, I 0.014, P -0.25, S -0.081, V -0.025, Q -0.006, A 0.05, H 0.011, L -0.021
R42: W -0.077, C -0.064, D 0.06, V 0.033, Q 0.127, N 0.093, H -0.011, G 0.009, K 0.106, F 0.077, I -0.062, L 0.012, A 0.01, M -0.024, E 0.011, T 0.036, Y -0.065, S 0.001
D48: P -0.591, Y -0.139, E -0.072, C -0.529, L -0.437, A -0.327, V -0.596, T -0.045, R -0.536, W -0.415, H -0.449, S -0.142, G -0.334, I -0.579, K -0.487, Q -0.385, N 0.024
K49: D -0.164, S -0.037, H -0.045, L -0.054, P 0.016, Q -0.033, M -0.021, T -0.001, W -0.129, V 0.024, R -0.004, N -0.06, C 0.045, E -0.097, F -0.019, Y -0.077
L38: E 0.012, M 0.02, V 0.058, G -0.059, I -0.043, C -0.03, F 0.018, S -0.035, Y -0.035, H 0.035, D 0.102, N 0.02, A 0.01, T -0.035, P -0.155, Q -0.024, K 0.033

Source: the Human Domainome abundance scans (Beltran et al. 2025)
